Measured values taken from patent publication US20230106715A1 (BIOSION, published 2023).

T1: mouse Siglec15-his protein (mouse)
T1 construct: In house made
T1 chain: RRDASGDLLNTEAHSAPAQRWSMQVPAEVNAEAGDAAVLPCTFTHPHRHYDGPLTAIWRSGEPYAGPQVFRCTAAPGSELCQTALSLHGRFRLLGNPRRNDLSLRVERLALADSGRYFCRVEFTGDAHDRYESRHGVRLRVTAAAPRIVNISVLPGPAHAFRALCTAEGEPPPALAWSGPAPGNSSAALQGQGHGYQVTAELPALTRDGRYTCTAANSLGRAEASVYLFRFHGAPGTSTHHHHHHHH

T2: recombinant human Siglec15-his protein (human, UniProt Q6ZMC9 20-263)
T2 construct: In house made; Biotin-labeled in the capture ELISA
T2 sequence: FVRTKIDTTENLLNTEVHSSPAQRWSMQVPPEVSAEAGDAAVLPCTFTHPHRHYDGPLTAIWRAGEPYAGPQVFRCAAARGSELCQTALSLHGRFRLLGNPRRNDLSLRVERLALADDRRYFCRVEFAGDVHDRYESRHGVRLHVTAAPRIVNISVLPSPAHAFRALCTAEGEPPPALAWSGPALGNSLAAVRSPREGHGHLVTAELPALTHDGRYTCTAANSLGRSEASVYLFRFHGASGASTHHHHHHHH

T3: cynomolgus monkey Siglec15-his protein (cynomolgus monkey)
T3 construct: In house made; also called Cynomolgus Siglec15-his; cynomolgus Siglec15
T3 chain: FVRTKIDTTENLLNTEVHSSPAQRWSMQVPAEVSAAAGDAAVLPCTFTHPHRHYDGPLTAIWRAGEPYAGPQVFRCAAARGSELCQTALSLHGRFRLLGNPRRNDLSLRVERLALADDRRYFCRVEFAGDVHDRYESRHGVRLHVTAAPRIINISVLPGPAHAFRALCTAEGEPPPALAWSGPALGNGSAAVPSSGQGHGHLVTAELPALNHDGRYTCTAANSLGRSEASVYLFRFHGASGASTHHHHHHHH


Experiments:
[1] = target: T1, mouse Siglec15-his protein; assay: indirect ELISA on coated mouse Siglec15-his
Method: The anti-Siglec15 antibodies' cross-reactions to cynomolgus or mouse Siglec15 proteins were measured. Briefly, 96-well micro plates were coated with 100 μl of 2 μg/ml cynomolgus Siglec15-his protein (in house made with SEQ ID NO: 21), or 2 μg/ml mouse Siglec15-his protein (in house made with SEQ ID NO: 22) in carbonate/bicarbonate buffer (pH 9.6) for 2 hours at 37° C. ELISA plates were washed once with wash buffer (PBS+0.05% v/v Tween-20, PBST) and then blocked with 200 μl/well blocking buffer (5% w/v non-fatty milk in PBST) overnight at 4° C. Plates were washed 4 times and incubated with 100 μl serially diluted anti-Siglec15 antibodies of the disclosure or controls (starting at 66.7 nM, 5-fold serial dilution in PBST with 2.5% w/v non-fatty milk) for 40 minutes at 37° C. ELISA plates were washed 4 times again and incubated with Peroxidase AffiniPure Goat Anti-Human IgG, F(ab)₂ fragment specific (1:5000 dilution in PBST buffer, Jackson Immunoresearch, Cat #109-035-097, 100 μl/well) for 40 minutes at 37° C. After a final wash, plates were incubated with 100 μl/well TMB (Innoreagents, Cat #TMB-S-002). The reaction was stopped 4 minutes later at room temperature with 50 μl 1M H₂SO₄, and the absorbance of each well was read on a microplate reader using dual wavelength mode with 450 nm for TMB and 630 nm as the reference wavelength, then the OD (450-630) values were plotted against antibody concentration. Data was analyzed using Graphpad Prism software and EC₅₀ values were reported.

[2] = target: T2, recombinant human Siglec15-his protein; assay: SPR Biacore T200, antibody captured by anti-human IgG, antigen as analyte, 1:1 fit
Method: (§1) Briefly, goat anti-human IgG (GE healthcare, Cat #BR100839, Human Antibody Capture Kit) was covalently linked to a CM5 chip (carboxy methyl dextran coated chip, GE healthcare, Cat #BR-1005-30) via primary amines, using a standard amine coupling kit provided by Biacore (GE healthcare, Pittsburgh, Pa., USA). Un-reacted moieties on the biosensor surface were blocked with ethanolamine. Then, purified anti-Siglec15 antibodies of the disclosure at the concentration of 13.3 nM and an anti-Siglec15 benchmark (ch5G12, also referred to as BM, see U.S. Patent Publication No. 20190202912A1, amino acid sequences of the heavy chain and light chain set forth in SEQ ID NOs: 24 and 25, respectively) at 13.3 nM, were respectively flowed onto the chip at a flow rate of 10 μL/min. Then, serially diluted recombinant human Siglec15-his protein (in house made, amino acid sequence set forth in SEQ ID NO: 20) or cynomolgus monkey Siglec15-his protein (in house made, amino acid sequence set forth in SEQ ID NO: 21), 2-fold serial dilution in HBS-EP⁺ buffer starting at 80 nM, were respectively flown onto the chip at a flow rate of 30 μL/min. The antigen-antibody association kinetics was followed for 2 minutes and the dissociation kinetics was followed for 10 minutes. The association and dissociation curves were fit to a 1:1 Langmuir binding model using BIAcore evaluation software.

[3] = target: T3, cynomolgus monkey Siglec15-his protein; assay: as above
Method: as §1

[4] = target: T4, human Siglec15-Fc protein (human); assay: competitive ELISA: biotin-labeled human Siglec15-Fc in solution, competitor coated benchmark
T4 construct: In house made; also called recombinant human Siglec15 protein with human IgG1 Fc at the C-terminus
Method: The abilities of the anti-Siglec15 antibodies of the disclosure to block benchmark-human Siglec15 binding were measured in a competitive ELISA assay. Briefly, the benchmark was coated on 96-well micro plates at 2 μg/mL in PBS, 100 μl per well, and incubated for 2 hours at 37° C. Then plates were washed once with wash buffer, and blocked with 5% w/v non-fatty milk in PBST overnight at 4° C. The next day, the anti-Siglec15 antibodies of the disclosure or controls were diluted with biotin labeled human Siglec15-Fc protein (prepared in-house with SEQ ID NO: 19, 37 ng/ml in PBST with 2.5% w/v non-fatty milk), starting at 80 nM with a 4-fold serial dilution, and incubated at room temperature for 40 minutes. After plate washing 4 times, the antibody/Siglec15-Fc mixtures were added to benchmark coated plates, 100 μl per well. After incubation at 37° C. for 40 minutes, plates were washed 4 times again using wash buffer. Then the plates were added and incubated with 100 μl/well streptavidin conjugated HRP for 40 minutes at 37° C. Plates were washed again using wash buffer. Finally, TMB was added and the reaction was stopped using 1M H₂SO₄, and the absorbance of each well was read on a microplate reader using dual wavelength mode with 450 nm for TMB and 630 nm as the reference wavelength, then the OD (450-630) values were plotted against antibody concentration. Data was analyzed using Graphpad Prism software and IC₅₀ values were reported.
The mouse anti-Siglec15 antibodies of the disclosure were also tested in ligand blocking ELISA and benchmark blocking ELISA following the protocols described above.

T4 sequence (chain, as listed by the source limits assumed): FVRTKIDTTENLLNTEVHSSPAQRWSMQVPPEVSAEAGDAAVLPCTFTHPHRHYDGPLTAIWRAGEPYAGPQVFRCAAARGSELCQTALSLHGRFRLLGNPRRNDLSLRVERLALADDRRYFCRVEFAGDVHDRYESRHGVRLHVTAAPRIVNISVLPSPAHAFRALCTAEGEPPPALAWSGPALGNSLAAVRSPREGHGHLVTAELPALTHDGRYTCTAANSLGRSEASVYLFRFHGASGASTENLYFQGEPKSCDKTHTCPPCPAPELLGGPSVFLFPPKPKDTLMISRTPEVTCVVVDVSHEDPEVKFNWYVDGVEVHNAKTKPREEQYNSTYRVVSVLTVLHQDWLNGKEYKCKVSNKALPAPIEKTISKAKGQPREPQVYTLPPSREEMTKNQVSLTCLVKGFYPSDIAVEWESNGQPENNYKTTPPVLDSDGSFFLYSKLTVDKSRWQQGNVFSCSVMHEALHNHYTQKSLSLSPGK

Binder	EC50 [1] [nM]	Kd [2] [nM]	koff [2] [s⁻¹]	kon [2] [M⁻¹ s⁻¹]	Kd [3] [nM]	koff [3] [s⁻¹]	kon [3] [M⁻¹ s⁻¹]	IC50 [4] [nM]
A2A5C7E8-2 (antibody, human IgG1, kappa, V domains shown, Variant of A2A5C7E8 modified in VH CDR2 (X1 = E)) VH: EVQLVQSGAEVKKPGESLRISCKGSGYSFTTYWISWVRQMPGKGLEWMGLIDPSESYTNYSPSFQGHVTISTDKSISTAYLQWSSLKASDTAMYYCARGGYYGSEEDYWGQGTLVTVSS VL: EIVLTQSPGTLSLSPGERATLSCRASQSVSSSRLAWFQQKSGQAPRLLIFDASSRATGIPDRFSGSGSGTDFTLTISRLEPEDFAVYYCQQYGSSPRTFGQGTKVEFKR	0.151	–	–	–	–	–	–	–
B2D7H7A3C1 (antibody, V domains shown, Mouse monoclonal antibody from hybridoma; also called mouse B2D7H7A3C1) VH: QVQLQQSGAELVRPGTSVQMSCKAAGYTFTNYWIGWVKQRPGHGLEWVGDIHPGINYTNNNEKFRGKATLTADTSSNTAYMQLRGLTSDDSAIYYCARVDYDYDGSYIMDYWGQGTSVTVSS VL: QIVLSQSPALLSASPGEKVTMTCRASSSVSYMYWYQQKPGSSPKPWIYATSNLTSGVPARFSGSGSGTSYSLTISRVEAEDAATYFCQQWNSKPWTFGGGSKLEIR	–	–	–	–	–	–	–	0.081
A1E10G7H9 (antibody, V domains shown, Fully human antibody from transgenic mouse hybridoma) VH: QVQLQESGPGLVKPSGTLSLTCAVSGGSISSSNWWHWVRQPPGKGLEWIGEIYHSGNTNYKPSLKSRVTISVDKSKNQFSLKLSSVTAADTAVYYCARDEGNGWSNAFDIWGQGTMVTVSS VL: ENVLTQSPGTLSLSPGERVTLSCRASQSVSSSYLAWYQQKPGQAPRFLIYGASGGATGIPDRFSGSGSGTDFTLTISRLEPEDFAVYYCQQYGSSPITFGQGTRLEIK	–	0.0139	0.0001	7.18e+06	0.0269	0.000104	3.89e+06	–

More lines, now with the values ahead:

EC50 [1] [nM]	Kd [2] [nM]	koff [2] [s⁻¹]	kon [2] [M⁻¹ s⁻¹]	Kd [3] [nM]	koff [3] [s⁻¹]	kon [3] [M⁻¹ s⁻¹]	IC50 [4] [nM]	Binder
0.276	0.265	0.00172	6.51e+06	0.448	0.000788	1.76e+06	0.447	anti-Siglec15 benchmark (ch5G12) (antibody, human IgG1, kappa, V domains shown, ch5G12 (US 20190202912A1); also called BM; Siglec15-ch5G9) VH: QVQLQQPGAELVKPGASVKMSCKASGYTFTSYWITWVIQRPGQGLEWIGDIYCGSDTMHYNEKFKNKATLTVDTSSSTAYMQLSSLTSEDSAVYYCARWWDYGSSYDYFDYWGQGTTLTVSS VL: DIKMTQSPSSMYASLGERVTITCKASQDINSYLSWFQQKPGKSPKTLIYRANRLVDGVPSRFSGSGSGQDYSLTISSLEYEDMGIYYCLQYDEFPYTFGGGTKLEIKR
0.139	0.041	9.98e-05	2.43e+06	0.0681	8.49e-05	1.25e+06	–	A2A5C7E8 (antibody, V domains shown, Fully human antibody from transgenic mouse hybridoma; also called A2A5C7E8-1) VH: EVQLVQSGAEVKKPGESLRISCKGSGYSFTTYWISWVRQMPGKGLEWMGLIDPSDSYTNYSPSFQGHVTISTDKSISTAYLQWSSLKASDTAMYYCARGGYYGSEEDYWGQGTLVTVSS VL: EIVLTQSPGTLSLSPGERATLSCRASQSVSSSRLAWFQQKSGQAPRLLIFDASSRATGIPDRFSGSGSGTDFTLTISRLEPEDFAVYYCQQYGSSPRTFGQGTKVEFK
0.159	–	–	–	–	–	–	–	A2A5C7E8-3 (antibody, human IgG1, kappa, V domains shown, Variant of A2A5C7E8 modified in VH CDR2 (X2 = K)) VH: EVQLVQSGAEVKKPGESLRISCKGSGYSFTTYWISWVRQMPGKGLEWMGLIDPSDSYTNYSPSFKGHVTISTDKSISTAYLQWSSLKASDTAMYYCARGGYYGSEEDYWGQGTLVTVSS VL: EIVLTQSPGTLSLSPGERATLSCRASQSVSSSRLAWFQQKSGQAPRLLIFDASSRATGIPDRFSGSGSGTDFTLTISRLEPEDFAVYYCQQYGSSPRTFGQGTKVEFKR
–	–	–	–	–	–	–	0.063	B2G12H3E8 (antibody, V domains shown, Mouse monoclonal antibody from hybridoma; also called mouse B2G12H3E8) VH: QVQLKQSGAELVRPGTSVQMSCKAVGYTFTNYWIGWVKQRPGHGLEWVGDIHPGINYTNNNEKFRGKATLTADTSSSTAYMQLRGLTSDDSAIYYCARVDYDYDGSYIMDYWGQGTSVTVSS VL: QIVLSQSPALLSASPGEKVTMTCRASSSVSYMYWYQQKPGSSPKPWIYATSNLTSGVPARFSGSGSGTSYSLTISRVEAEDAATYFCQQWNSKPWTFGGGSKLEIR
–	–	–	–	–	–	–	0.0642	B2H2H1H7 (antibody, V domains shown, Mouse monoclonal antibody from hybridoma; also called mouse B2H2H1H7; B2H2H1A7) VH: QVQLQQSGAELVRPGTSVQMSCKAAGYTFTNYWIGWVKQRPGHGLEWVGDIHPGINYTNNNEKFRGKATLTADTSSSTAYMQLRGLTSDDSAIYYCARVDYDYDGSYIMDYWGQGTSVTVSS VL: QIILSQSPALLSASPGEKVTMTCRASSSVSYMYWYQQKPGSSPKPWIYATSNLTSGVPARFSGSGSGTSYSLTISRVEAEDAATYFCQQWNSKPWTFGGGSRLEIR
